B1: I-369 (peptide)
peptide: Ac-[αAllylPro]DA[B5(4)]DDAAFA[S8][Phe(4-Me)][Bta]Q-NH2
modifications: staple 1-4, 4-11
B2: I-367 (peptide)
peptide: Ac-[αAllylPro]DA[B5(4)]DDAAFA[S8][Phe(2-Me)][Bta]Q-NH2
modifications: staple 1-4, 4-11
B3: I-370 (peptide)
peptide: Ac-[αAllylPro]DA[B5(4)]DDAA[2Nal]A[S8]F[Bta]Q-NH2
modifications: staple 1-4, 4-11
B4: I-365 (peptide)
peptide: Ac-[αAllylPro]DA[B5(4)]DDAA[Phe(2-Me)]A[S8]F[Bta]Q-NH2
modifications: staple 1-4, 4-11; also: earlier-eluting staple isomer
B5: I-366 (peptide)
peptide: Ac-[αAllylPro]DA[B5(4)]DDAA[Phe(2-Me)]A[S8]F[Bta]Q-NH2
modifications: staple 1-4, 4-11; also: later-eluting staple isomer
B6: I-2498 (peptide)
peptide: Ac-[αAllylPro]N[Cha][B5]DQ[hSer]AFL[PyrS2]F[Bta][MorphAsn]-NH2
modifications: staple 1-4, 4-11
B7: I-2506 (peptide)
peptide: Ac-[αAllylPro]D[tBuAla][B6]D[Phe(3-COOH)]QAFL[PyrS][Phe(2-CF3)][Bta]A-NH2
modifications: staple 1-4, 4-11; also: earlier-eluting staple isomer composition
B8: I-2492 (peptide)
peptide: Ac-[αAllylPro]D[tBuAla][B5(4)]NT[Ac3c]AFN[PyrS2″][3Thi][Bta]Q-NH2
modifications: staple 1-4, 4-11
B9: I-2497 (peptide)
peptide: Ac-[αAllylPro]D[tBuAla][B5]NT[Aib]AF[MeAsn][PyrS2][3Thi][Bta]N-NH2
modifications: staple 1-4, 4-11
B10: I-2496 (peptide)
peptide: Ac-[αAllylPro]D[tBuAla][B5]NT[Aib]AF[Me2Asn][PyrS2][3Thi][Bta]N-NH2
modifications: staple 1-4, 4-11
B11: I-1855 (peptide)
peptide: Ac-[αAllylPro]D[tBuAla][B5(5)]D[TfeGA]AA[(CH2NMe2)TriAzDap]L[PyrS2″][3Thi][Bta]Q-NH2
modifications: staple 1-4, 4-11; also: separately listed staple isomer composition
B12: I-2494 (peptide)
peptide: Ac-[αAllylPro]D[tBuAla][B5]NT[Aib]AFN[PyrS2][3Thi][Bta][Me2Asn]-NH2
modifications: staple 1-4, 4-11
B13: I-1859 (peptide)
peptide: Ac-[αAllylPro]D[tBuAla][B5(5)]D[TfeGA]AA[(MorphCH2)TriAzDap]L[PyrS2″][3Thi][Bta]Q-NH2
modifications: staple 1-4, 4-11; also: separately listed staple isomer composition
B14: I-1851 (peptide)
peptide: Ac-[αAllylPro]D[tBuAla][B5(18)]D[Phe(3-COOH)]AAFL[PyrS2(3)][Phe(2-Cl)][Bta]A-NH2
modifications: staple 1-4, 4-11
B15: I-2501 (peptide)
peptide: Ac-[αAllylPro]N[Cha][B5]DQ[Me2Gln]AFL[PyrS2]F[Bta][MorphAsn]-NH2
modifications: staple 1-4, 4-11
B16: I-1857 (peptide)
peptide: Ac-[αAllylPro]D[tBuAla][B5(5)]D[TfeGA]AA[(CH2Ppz)TriAzDap]L[PyrS2″][3Thi][Bta]Q-NH2
modifications: staple 1-4, 4-11; also: separately listed staple isomer composition
B17: I-2502 (peptide)
peptide: Ac-[αAllylPro]N[Cha][B5]DQ[MeGln]AFL[PyrS2]F[Bta][MorphAsn]-NH2
modifications: staple 1-4, 4-11
B18: I-1850 (peptide)
peptide: Ac-[αAllylPro]D[tBuAla][B5(18)]D[Phe(3-COOH)]AAFV[PyrS2(3)][Phe(2-Cl)][Bta]S-NH2
modifications: staple 1-4, 4-11
B19: I-2489 (peptide)
peptide: Ac-[αAllylPro]D[tBuAla][B5(4)]D[Phe(3-COOH)]QAFL[PyrS2″][Phe(2-CF3)][7FBztA]A-NH2
modifications: staple 1-4, 4-11
B20: I-2504 (peptide)
peptide: Ac-[αAllylPro]N[Cha][B5]DQQAFL[PyrS2]F[Bta][MorphAsn]-NH2
modifications: staple 1-4, 4-11
B21: I-1853 (peptide)
peptide: Ac-[αAllylPro]N[tBuAla][B5(18)]D[Phe(3-COOH)]AAFL[PyrS2(3)][Phe(2-Cl)][Bta]S-NH2
modifications: staple 1-4, 4-11
B22: I-1849 (peptide)
peptide: Ac-[αAllylPro]D[tBuAla][B5(18)]D[Phe(3-COOH)]AAFA[PyrS2(3)][Phe(2-Cl)][Bta]S-NH2
modifications: staple 1-4, 4-11
B23: I-2491 (peptide)
peptide: Ac-[αAllylPro]D[tBuAla][B5(4)]D[Phe(3-COOH)]QAFL[PyrS2″][Phe(2-CF3)][4ClBztA]A-NH2
modifications: staple 1-4, 4-11; reading uncertain
B24: I-1852 (peptide)
peptide: Ac-[αAllylPro]D[tBuAla][B5(18)]D[Phe(3-COOH)]AAFL[PyrS2(3)][Phe(2-Cl)][Bta]-NH2
modifications: staple 1-4, 4-11
B25: I-2507 (peptide)
peptide: Ac-[αAllylPro]D[tBuAla][B6]D[Phe(3-COOH)]QAFL[PyrS][Phe(2-CF3)][Bta]A-NH2
modifications: staple 1-4, 4-11; also: later-eluting staple isomer composition
B26: I-2503 (peptide)
peptide: Ac-[αAllylPro]N[Cha][B5]DQTAFL[PyrS2]F[Bta][MorphAsn]-NH2
modifications: staple 1-4, 4-11
B27: I-1860 (peptide)
peptide: Ac-[αAllylPro]D[tBuAla][B5(5)]D[TfeGA]AA[(SO2MorphCH2)TriAzDap]L[PyrS2″][3Thi][Bta]Q-NH2
modifications: staple 1-4, 4-11
B28: I-1858 (peptide)
peptide: Ac-[αAllylPro]D[tBuAla][B5(5)]D[TfeGA]AA[(MorphCH2)TriAzDap]L[PyrS2″][3Thi][Bta]Q-NH2
modifications: staple 1-4, 4-11; also: separately listed staple isomer composition
B29: I-2487 (peptide)
peptide: Ac-[αAllylPro]D[tBuAla][B5(4)]D[Phe(3-COOH)]QAFL[PyrS2″][Phe(2-CF3)][7ClBztA]A-NH2
modifications: staple 1-4, 4-11
B30: I-2495 (peptide)
peptide: Ac-[αAllylPro]D[tBuAla][B5]NT[Aib]AFN[PyrS2][3Thi][Bta][MeAsn]-NH2
modifications: staple 1-4, 4-11
B31: I-2493 (peptide)
peptide: Ac-[αAllylPro]D[tBuAla][B5(4)]NT[Ac5c]AFN[PyrS2″][3Thi][Bta]Q-NH2
modifications: staple 1-4, 4-11
B32: I-2364 (peptide)
peptide: Isobutyloxycarbonyl-[αAllylPro]D[tBuAla][B5(4)]DDAAFQ[PyrS2″][3Thi][Bta]H-NH2
modifications: staple 1-4, 4-11
B33: I-2363 (peptide)
peptide: Butoxycarbonyl-[αAllylPro]D[tBuAla][B5(4)]DDAAFQ[PyrS2″][3Thi][Bta]H-NH2
modifications: staple 1-4, 4-11
B34: I-2377 (peptide)
peptide: {3‑(allyloxy)benzoyl}-PD[tBuAla][B5(5)]D[TfeGA]AAFL[PyrS2″][3Thi][Bta]Q-NH2
modifications: staple 4-11, N-4; also: -CH=CH- in each staple reduced to -CH2-CH2-

Starred links: 1 amine or outer side, 2 acyl side, 3 side chain; linkers in the order of their positions; H or OH if unused. Positions of bridges follow the written chain, without caps; N, C: chain ends. Non-standard residues stand in square brackets, D forms with d. Primed or numbered codes have the meaning given here. *: point of attachment. (SO2MorphCH2)TriAzDap = (S)-2-amino-3-(4-((1,1-dioxidothiomorpholino)methyl)-1H-1,2,3-triazol-1-yl)propanoic acid, O=C([C@H](Cn1cc(CN2CCS(=O)(=O)CC2)nn1)N[*:1])[*:2]; (CH2Ppz)TriAzDap = (S)-2-amino-3-(4-(piperazin-1-ylmethyl)-1H-1,2,3-triazol-1-yl)propanoic acid, O=C([C@H](Cn1cc(CN2CCN([*:3])CC2)nn1)N[*:1])[*:2]; PyrS2(3) = (S)-3-amino-1-((pent-4-en-1-yloxy)carbonyl)pyrrolidine-3-carboxylic acid, stapling residue, C=CCCCOC(=O)N1CC[C@@](N[*:1])(C(=O)[*:2])C1; PyrS2″ = (S)-3-amino-1-((pent-4-en-1-yloxy)carbonyl)pyrrolidine-3-carboxylic acid (stapling residue), C=CCCCOC(=O)N1CC[C@@](N[*:1])(C(=O)[*:2])C1; (CH2NMe2)TriAzDap = (S)-2-amino-3-(4-((dimethylamino)methyl)-1H-1,2,3-triazol-1-yl)propanoic acid, CN(C)Cc1cn(C[C@H](N[*:1])C(=O)[*:2])nn1; (MorphCH2)TriAzDap = (S)-2-amino-3-(4-(morpholinomethyl)-1H-1,2,3-triazol-1-yl)propanoic acid, O=C([C@H](Cn1cc(CN2CCOCC2)nn1)N[*:1])[*:2]; B5(18) = 2,2-bis(4-pentenyl)glycine (2-amino-2-(pent-4-en-1-yl)hept-6-enoic acid), stitching residue, C=CCCCC(CCCC=C)(N[*:1])C(=O)[*:2]; B5(4) = 2,2-bis(4-pentenyl)glycine = 2-amino-2-(pent-4-en-1-yl)hept-6-enoic acid (stitching residue), C=CCCCC(CCCC=C)(N[*:1])C(=O)[*:2]; B5(5) = 2,2-bis(4-pentenyl)glycine, 2-amino-2-(pent-4-en-1-yl)hept-6-enoic acid (stitching residue), C=CCCCC(CCCC=C)(N[*:1])C(=O)[*:2]; TfeGA = (S)-2-amino-3-((carboxymethyl)(2,2,2-trifluoroethyl)amino)propanoic acid, O=C([C@H](CN(CC(=O)[*:3])CC(F)(F)F)N[*:1])[*:2]; PyrS2 = (S)-3-amino-1-((pent-4-en-1-yloxy)carbonyl)pyrrolidine-3-carboxylic acid, C=CCCCOC(=O)N1CC[C@@](N[*:1])(C(=O)[*:2])C1; PyrS = (S)-1-((allyloxy)carbonyl)-3-aminopyrrolidine-3-carboxylic acid, C=CCOC(=O)N1CC[C@@](N[*:1])(C(=O)[*:2])C1; MorphAsn = (S)-2-amino-4-morpholino-4-oxobutanoic acid, O=C(C[C@H](N[*:1])C(=O)[*:2])N1CCOCC1; B5 = 2-amino-2-(pent-4-en-1-yl)hept-6-enoic acid, C=CCCCC(CCCC=C)(N[*:1])C(=O)[*:2]; B6 = 2-amino-2-(hex-5-en-1-yl)oct-7-enoic acid, C=CCCCCC(CCCCC=C)(N[*:1])C(=O)[*:2]; Me2Asn = listed as N4-methyl-L-asparagine, CNC(=O)C[C@H](N[*:1])C(=O)[*:2]; MeAsn = N4-methyl-L-asparagine, CNC(=O)C[C@H](N[*:1])C(=O)[*:2]; MeGln = N5-methyl-L-glutamine, CNC(=O)CC[C@H](N[*:1])C(=O)[*:2]; Phe(3-COOH) = N[C@@H](Cc1cccc(C(=O)O)c1)C(=O)O; Phe(2-CF3) = N[C@@H](Cc1ccccc1C(F)(F)F)C(=O)O; Phe(2-Cl) = N[C@@H](Cc1ccccc1Cl)C(=O)O; Phe(4-Me) = Cc1ccc(C[C@H](N)C(=O)O)cc1; 2Nal = N[C@@H](Cc1ccc2ccccc2c1)C(=O)O; Phe(2-Me) = Cc1ccccc1C[C@H](N)C(=O)O; Bta = N[C@@H](Cc1csc2ccccc12)C(=O)O; Isobutyloxycarbonyl = CC(C)COC(=O)*; αAllylPro = C=CC[C@@]1(C(=O)O)CCCN1; tBuAla = CC(C)(C)C[C@H](N)C(=O)O; 3Thi = N[C@@H](Cc1ccsc1)C(=O)O; Cha = N[C@@H](CC1CCCCC1)C(=O)O; S8 = C=CCCCCCC[C@](C)(N)C(=O)O; Butoxycarbonyl = CCCCOC(=O)*; 4ClBztA = not defined here; hSer = N[C@@H](CCO)C(=O)O; Ac5c = NC1(C(=O)O)CCCC1; Ac3c = NC1(C(=O)O)CC1; Aib = CC(C)(N)C(=O)O

The target in the first test is full-length beta-Catenin (Uniprot ID P35222) (Homo sapiens (Human)) (UniProt P35222). Nature of the test: fluorescence polarization competition; peptide titrated against 10 nM full-length beta-catenin + 10 nM 5FAM-TCF4(10-53). On the technique in general: In fluorescence polarisation assays a small probe gives low polarisation when free and higher when bound to something large.
full-length beta-Catenin (Uniprot ID P35222) (Homo sapiens (Human)), sequence (P35222 whole entry): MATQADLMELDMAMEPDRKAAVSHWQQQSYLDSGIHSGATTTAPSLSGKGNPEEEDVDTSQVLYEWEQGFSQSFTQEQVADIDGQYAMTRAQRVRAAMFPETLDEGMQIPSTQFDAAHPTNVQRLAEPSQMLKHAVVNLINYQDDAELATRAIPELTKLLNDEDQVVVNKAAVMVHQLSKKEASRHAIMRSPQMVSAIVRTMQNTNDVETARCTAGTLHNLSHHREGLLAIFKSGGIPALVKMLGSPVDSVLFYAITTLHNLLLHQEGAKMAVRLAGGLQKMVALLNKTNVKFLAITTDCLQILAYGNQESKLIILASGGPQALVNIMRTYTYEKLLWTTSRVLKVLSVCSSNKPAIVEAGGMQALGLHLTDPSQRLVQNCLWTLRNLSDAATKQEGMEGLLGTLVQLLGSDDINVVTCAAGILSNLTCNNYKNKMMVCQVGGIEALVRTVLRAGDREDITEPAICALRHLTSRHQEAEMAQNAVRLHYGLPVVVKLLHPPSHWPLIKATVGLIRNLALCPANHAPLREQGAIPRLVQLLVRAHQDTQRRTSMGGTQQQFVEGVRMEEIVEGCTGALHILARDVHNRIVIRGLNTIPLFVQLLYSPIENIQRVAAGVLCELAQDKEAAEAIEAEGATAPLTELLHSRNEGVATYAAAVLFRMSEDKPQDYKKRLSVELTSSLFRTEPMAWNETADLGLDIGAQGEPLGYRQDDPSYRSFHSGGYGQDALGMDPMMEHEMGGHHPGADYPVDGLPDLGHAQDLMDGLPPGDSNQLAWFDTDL
On to B1, for which the IC50 (usually the concentration that gives 50% inhibition) turned out to be 2310 nM.

Regarding B2, the IC50 was 177 nM.

As to B3, the IC50 came out at 1560 nM.

B4: the IC50 worked out at 2720 nM.

As for B5, the IC50 was found to be 1440 nM.

For another test the target is unchanged. Nature of the test: fluorescence polarization competition; 10 nM full-length beta-catenin, competitor 10 nM 5FAM-TCF4(10-53).
B6 displayed an IC50 of 449 nM.

Regarding B7, the IC50 came out at 332 nM.

For B1, the EC50 (as a rule, the concentration at which the effect is half-maximal) was 2310 nM.

In the case of B8, the IC50 is 174 nM.

Take B9: the IC50 was 105 nM.

As to B10, the IC50 came to 106 nM.

As to B11, the IC50 stood at 849 nM.

B2 came in with an EC50 of 177 nM.

With B12, the IC50 amounted to 102 nM.

As for B13, the IC50 was found to be 1110 nM.

The molecule B14 showed an IC50 of 25 nM.

Molecule B15 displayed an IC50 of 154 nM.

On to B16, for which the IC50 amounted to 4020 nM.

Take B17: the IC50 was determined as 214 nM.

B18: the IC50 stood at 17 nM.

The molecule B19 had an IC50 of 29 nM.

For B20, the IC50 was found to be 210 nM.

For B21, the IC50 worked out at 114 nM.

In the case of B3, the EC50 stood at 1560 nM. This counts as single-digit micromolar.

Take B22: the IC50 came out at 19 nM.

On to B23, for which the IC50 was 49 nM.

The molecule B4 had an EC50 of 2720 nM.

In the case of B24, the IC50 worked out at 48 nM.

Consider B25, for which the IC50 amounted to 168 nM.

In the case of B26, the IC50 amounted to 1310 nM.

In turn, B27 registered an IC50 of 512 nM.

Regarding B28, the IC50 was 1110 nM.

Consider B29, for which the IC50 was 36 nM.

Molecule B30 came in with an IC50 of 95 nM.

For the molecule B5, the EC50 was 1440 nM. This counts as single-digit micromolar.

Turning to B31, the IC50 stood at 267 nM.

The next test shares this target. Nature of the test: fluorescence polarization competition against 5FAM-TCF4 10-53 on full-length beta-catenin.
B32 gave an IC50 of 116 nM.

Regarding B33, the IC50 amounted to 44 nM.

B34 came in with an IC50 of 978 nM.

The record behind these values is patent publication US20240116985A1, “STAPLED PEPTIDES AND METHODS THEREOF” (priority 2020, published 2024).
